In PMC11139282, “Structure and activity of the septal peptidoglycan hydrolysis machinery crucial for bacterial cell division” (PLOS Biology, 2024):

B1: FtsX(His&Myc) [E. coli K-12] / FtsE(Flag) [E. coli K-12] (parent)
chain 1: MIRFEHVSKAYLGGRQALQGVTFHMQPGEMAFLTGHSGAGKSTLLKLICGIERPSAGKIWFSGHDITRLKNREVPFLRRQIGMIFQDHHLLMDRTVYDNVAIPLIIAGASGDDIRRRVSAALDKVGLLDKAKNFPIQLSGGEQQRVGIARAVVNKPAVLLADEPTGNLDDALSEGILRLFEEFNRVGVTVLMATHDINLISRRSYRMLTLSDGHLHGGVGHE
chain 2: MNKRDAINHIRQFGGRLDRFRKSVGGSGDGGRNAPKRAKSSPKPVNRKTNVFNEQVRYAFHGALQDLKSKPFATFLTVMVIAISLTLPSVCYMVYKNVNQAATQYYPSPQITVYLQKTLDDDAAAGVVAQLQAEQGVEKVNYLSREDALGEFRNWSGFGGALDMLEENPLPAVAVVIPKLDFQGTESLNTLRDRITQINGIDEVRMDDSWFARLAALTGLVGRVSAMIGVLMVAAVFLVIGNSVRLSIFARRDSINVQKLIGATDGFILRPFLYGGALLGFSGALLSLILSEILVLRLSSAVAEVAQVFGTKFDINGLSFDECLLLLLVCSMIGWVAAWLATVQHLRHFTPE

Variants of: B1
Test: western blot of membrane fraction, quantified (FtsE retained on membrane with FtsX)
Conditions: with FtsE(Flag) [E. coli K-12]; parent: 1.3; read off a plot

| response (OmpC adjusted) | Variant |
| --- | --- |
| 0.38 | chain 2 MNKRDAINHIRQFGGRLDRFRKSVGGSGDGGRNAPKRAKSSPKPVNRKTNVFNEQVRYAFHGALQDLKSKPFATFLTVMVIAISLTLPSVCYMVYKNVNQAATQYYPSPQITVYLQKTLDDDAAAGVVAQLQAEQGVEKVNYLSREDALGEFRNWSGFGGALDMLEENPLPAVAVVIPKLDFQGTESLNTLRDRITQINGIDEVRMDDSWFARLAALTGLVGRVSAMIGVLMVAAVFLVIGNSVRLSIFARRDSINPQKLIGATDGFILRPFLYGGALLGFSGALLSLILSEILVLRLSSAVAEVAQVFGTKFDINGLSFDECLLLLLVCSMIGWVAAWLATVQHLRHFTPE [chain 2 V257P] |
| 0.51 | chain 2 MNKRDAINHIRQFGGRLDRFRKSVGGSGDGGRNAPKRAKSSPKPVNRKTNVFNEQVRYAFHGALQDLKSKPFATFLTVMVIAISLTLPSVCYMVYKNVNQAATQYYPSPQITVYLQKTLDDDAAAGVVAQLQAEQGVEKVNYLSREDALGEFRNWSGFGGALDMLEENPLPAVAVVIPKLDFQGTESLNTLRDRITQINGIDEVRMDDSWFARLAALTGLVGRVSAMIGVLMVAAVFLVIGNSVRLSIFARRDSINVQKLIGAKDGFILRPFLYGGALLGFSGALLSLILSEILVLRLSSAVAEVAQVFGTKFDINGLSFDECLLLLLVCSMIGWVAAWLATVQHLRHFTPE [chain 2 T264K] |

More lines, now with the values behind:

| Variant | response (OmpC adjusted) |
| --- | --- |
| chain 2 MNKRDAINHIRQFGGRLDRFRKSVGGSGDGGRNAPKRAKSSPKPVNRKTNVFNEQVRYAFHGALQDLKSKPFATFLTVMVIAISLTLPSVCYMVYKNVNQAATQYYPSPQITVYLQKTLDDDAAAGVVAQLQAEQGVEKVNYLSREDALGEFRNWSGFGGALDMLEENPLPAVAVVIPKLDFQGTESLNTLRDRITQINGIDEVRMDDSWFARLAALTGLVGRVSAMIGVLMVAAVFLVIGNSVRLSIFARRDSINVQKLDGATDGFILRPFLYGGALLGFSGALLSLILSEILVLRLSSAVAEVAQVFGTKFDINGLSFDECLLLLLVCSMIGWVAAWLATVQHLRHFTPE [chain 2 I261D] | 0.11 |
| chain 2 MNKRDAINHIRQFGGRLDRFRKSVGGSGDGGRNAPKRAKSSPKPVNRKTNVFNEQVRYAFHGALQDLKSKPFATFLTVMVIAISLTLPSVCYMVYKNVNQAATQYYPSPQITVYLQKTLDDDAAAGVVAQLQAEQGVEKVNYLSREDALGEFRNWSGFGGALDMLEENPLPAVAVVIPKLDFQGTESLNTLRDRITQINGIDEVRMDDSWFARLAALTGLVGRVSAMIGVLMVAAVFLVIGNSVRLSIFARRDSINVQKLIGATDGAILRPFLYGGALLGFSGALLSLILSEILVLRLSSAVAEVAQVFGTKFDINGLSFDECLLLLLVCSMIGWVAAWLATVQHLRHFTPE [chain 2 F267A] | 0.5 |
